Experiments:
[1] = target: T1, Recombinant human soluble Fas receptor (PeproTech, Cat. 310-20) (human, UniProt P25445 17-173); assay: SPR (BIAcore 3000), soluble Fas immobilized on CM5 chip, antibody as analyte, bivalent analyte fit
T1 construct: Bought soluble form; also called sFas; rFas
T1 sequence (looked up): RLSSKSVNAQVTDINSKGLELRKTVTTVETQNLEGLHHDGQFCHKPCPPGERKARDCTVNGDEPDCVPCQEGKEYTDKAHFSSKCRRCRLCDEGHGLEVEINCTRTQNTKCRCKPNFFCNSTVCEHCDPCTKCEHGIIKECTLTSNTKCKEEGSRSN
Procedure: The interaction of F45D9 mAb's (γ-γ1 and γ4-isotypes) with immobilized soluble human Fas receptor was monitored by surface plasmon resonance detection using a BIAcore 3000 instrument. Recombinant human soluble Fas receptor (srFas) (PeproTech, cat. 310-20) was immobilized (concentration of 5 ug/ml in immobilization buffer: 10 mM sodium acetate pH 5.0) onto a CM5 sensor chip (BIAcore BR-1001-14) using an Amine Coupling kit (BIAcore, Cat. BR-1000-50), at a surface density of […] resonance units (RU). Deactivation of excess reactive groups on the chip surface was done by adding 1.0 M ethalonamine hydrochloride (pH 8.5). F45D9 mAb's-γ1 mAb were passed over the surface in equilibrium binding experiments at concentrations ranging from […] at a flow rate of 30 ul/min. Dilutions and binding experiments were conducted in 0.01 M HEPES (pH 7.4), 0.15 M NaCl, 3 mM EDTA, and 0.005% P-20 (BIAcore surfactant, BR-1001-88). Between each cycle 100 mM HCl was used to regenerate the surfaces at a flow rate 30 ul/min. KA and KD of F45D9 mAb's were-γ1 mAb was determined by fitting bivalentusing BIAcore models (BIAevaluation).

[2] = target: T2, Human Fas (CD95) on the cell surface (human, UniProt P25445 26-335); assay: flow cytometry on the human B cell line SKW6.4, FITC anti-human IgG secondary, MFI after subtraction of the control human γ1 staining
T2 construct: also called APO-1; TNR6_Human
T2 sequence: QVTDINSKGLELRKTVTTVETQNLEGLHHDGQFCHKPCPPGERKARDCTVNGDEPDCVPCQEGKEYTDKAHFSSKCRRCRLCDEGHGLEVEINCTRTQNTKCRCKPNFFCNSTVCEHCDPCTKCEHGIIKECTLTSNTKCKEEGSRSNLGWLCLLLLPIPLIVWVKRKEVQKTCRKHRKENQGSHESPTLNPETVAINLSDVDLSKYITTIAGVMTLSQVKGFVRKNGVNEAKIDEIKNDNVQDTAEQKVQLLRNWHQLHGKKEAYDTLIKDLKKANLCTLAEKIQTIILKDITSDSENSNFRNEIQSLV

[3] = target: T3, Rhesus macaque Fas on the cell surface (rhesus macaque, UniProt Q9BDP2 26-333); assay: flow cytometry histograms (FL1-H) on rhesus macaque cells (cell type not printed on the sheet), FITC anti-human kappa or FITC anti-human IgG secondary
T3 construct: whole, on cells
T3 sequence (looked up): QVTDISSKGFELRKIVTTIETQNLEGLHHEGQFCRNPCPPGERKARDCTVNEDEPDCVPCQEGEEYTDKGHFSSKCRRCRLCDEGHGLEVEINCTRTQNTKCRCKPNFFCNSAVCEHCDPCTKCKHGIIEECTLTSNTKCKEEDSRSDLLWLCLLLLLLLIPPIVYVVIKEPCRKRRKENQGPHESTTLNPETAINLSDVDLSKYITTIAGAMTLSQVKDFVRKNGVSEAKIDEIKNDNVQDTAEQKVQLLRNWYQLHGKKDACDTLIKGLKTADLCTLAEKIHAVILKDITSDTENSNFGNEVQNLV
Source text: Reactivity of F45D9-γ1 or F45D9-γ4 mAb with Fas molecules of various species was initially screened using primary blood cells or lymphocytes cell lines. The binding of F45D9-γ1 or F45D9-γ4 mAb was explored by immunofluoresce staining and flow cytometry analysis, in human PBMC, purified human resting T cells, activated human T cells, peripheral blood lymphocytes (PBL) derived from BALE/c mice, rat, dog and pig, and in B cell lines or PBL derived from common marmoset, cynomolgus macaque, olive baboon, rhesus macaque and chimpanzee. Resting and activated human T cells were prepared as described in Example 7. B cells lines from monkeys were obtained from Biomedical Primate Research Center (Rijswijk, The Netherlands), and were cultured in RPMI 1640 medium supplemented with 2 mM glutamax, 100 UI/mL penicillin, 100 μg/mL streptomycin and 10% fetal bovine serum, at 37° C. and 5% CO₂. After washing in PBS cells (0.2−0.4×10⁶ cells/well) were incubated in staining buffer (PBS/1% FBS) containing F45D9-γ1 or human IgG control antibodies (10-20 ug/ml) in a 96-well U-bottom plate for 30 min on ice, in a 100 ul/well volume. Cells were then washed once with staining buffer, and further incubated for 30 min on ice with 1:30 dilution of FITC-conjugated rabbit F(ab′)₂ anti-human kappa (DakoCytomation Cat. F0434) or FITC-conjugated rabbit F(ab′)₂ anti-human IgG (DakoCytomation Cat. F0056). […]

B1: F45D9-γ1 mAb (recombinant human mAb T17/B2-1G4, gamma-1 isotype) (antibody, V domains shown)
VH: QVQLQQWGAGLLKPSETLSLICAVYGGSFSTYYWTWIRQPPGKGLEWIGEINHRGTTNYSPSLKSRVTISVDTSKNHISLNLTSVTAADTALYYCARGLLWIGEGDYGLDVWGQGTTVTVSS
VL: DIQMTQSPSSLSASVGDRVTITCRASQGIRRWLAWYQQKPEKAPKSLIYAASSLQSGVPSRFSGSGSGTDFTLTISSLQPEDFATYYCQQYNSYPYTFGQGTKLEIKR
notes: Whole human IgG1 (γ1fa allotype) with human kappa light chain, made in CHO DG44 cells; also called IgG1; T17/L18/B2-1G4
With B1 the Kd [1] was 0.0411 nM, the “EC50 (read off the curve)” value [2] was roughly 0.8 µg/mL and the binding result [3] was “no binding”.

From patent US20100233157A1 (published 2010)
